Results taken from the supplement of paper PMC9112550, “Optimization of the antimicrobial peptide Bac7 by deep mutational scanning” (BMC Biology, 2022).

These sequences were tested on Escherichia coli TOP10 (assay: shrunken log2 fold change of peptide-encoding DNA abundance (4.5 h post-induction vs induction); higher = less antimicrobial activity (less host growth inhibition)). Settings: time post-induction: 4.5 h; library: site-saturation at positions 5, 18, 19, 20.
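Also: peptides expressed intracellularly from a pBAD plasmid library in pooled LB shake-flask culture, induced with 0.3% L-arabinose, DNA abundance read by NGS, three biological replicates, DESeq2 with apeglm shrinkage.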

Point of comparison: RRIRPRPPRLPRPRPRPHFFPRP, “shrunken log2 fold change” value 0.118. Against it:
- RRIRTRPPRLPRPRPRPWHYPRP — lower, -0.268
- RRIRRRPPRLPRPRPRPLMDPRP — within 0.2 log units, 0.235
- RRIRPRPPRLPRPRPRPIILPRP — within 0.2 log units, -0.0642
- RRIRSRPPRLPRPRPRPWQCPRP — lower, -0.19
- RRIRFRPPRLPRPRPRPCNLPRP — lower, -0.264
- RRIRNRPPRLPRPRPRPADIPRP — lower, -0.183
- RRIRHRPPRLPRPRPRPPYMPRP — lower, -0.539
- RRIRERPPRLPRPRPRPCHKPRP — lower, -0.154
- RRIRGRPPRLPRPRPRPIFMPRP — within 0.2 log units, 0.283
- RRIRDRPPRLPRPRPRPSFQPRP — within 0.2 log units, -0.0455
- RRIRMRPPRLPRPRPRPEIAPRP — within 0.2 log units, 0.0315
- RRIRCRPPRLPRPRPRPFPMPRP — lower, -0.274
- RRIRFRPPRLPRPRPRPPESPRP — higher, 1.13
- RRIRQRPPRLPRPRPRPQHLPRP — within 0.2 log units, -0.0402
- RRIRKRPPRLPRPRPRPRMLPRP — higher, 0.588
- RRIRGRPPRLPRPRPRPYSVPRP — within 0.2 log units, 0.0284
- RRIRKRPPRLPRPRPRPFGEPRP — higher, 0.365
- RRIRIRPPRLPRPRPRPPVTPRP — lower, -0.287
- RRIRERPPRLPRPRPRPPHAPRP — within 0.2 log units, 0.229
- RRIRNRPPRLPRPRPRPLRCPRP — within 0.2 log units, 0.0876
- RRIRRRPPRLPRPRPRPNVQPRP — within 0.2 log units, 0.0253
- RRIRCRPPRLPRPRPRPRHYPRP — lower, -0.393
- RRIRERPPRLPRPRPRPMEWPRP — within 0.2 log units, 0.0338
- RRIRKRPPRLPRPRPRPNYKPRP — lower, -0.507
- RRIRVRPPRLPRPRPRPCDTPRP — within 0.2 log units, 0.0884
- RRIRQRPPRLPRPRPRPHYFPRP — lower, -0.239
- RRIRYRPPRLPRPRPRPCVTPRP — within 0.2 log units, -0.000683
- RRIRVRPPRLPRPRPRPYMTPRP — lower, -0.566
- RRIRGRPPRLPRPRPRPHLNPRP — within 0.2 log units, 0.0325
- RRIRMRPPRLPRPRPRPWDFPRP — within 0.2 log units, 0.121
- RRIRDRPPRLPRPRPRPQKVPRP — lower, -0.114
- RRIRFRPPRLPRPRPRPCTTPRP — lower, -0.381
- RRIRNRPPRLPRPRPRPNDPPRP — within 0.2 log units, 0.188
- RRIRFRPPRLPRPRPRPYEMPRP — lower, -0.412
- RRIRMRPPRLPRPRPRPLVYPRP — within 0.2 log units, 0.19
- RRIRCRPPRLPRPRPRPNIFPRP — lower, -0.432
- RRIRQRPPRLPRPRPRPSMEPRP — within 0.2 log units, 0.0775
- RRIRLRPPRLPRPRPRPSICPRP — within 0.2 log units, -0.0314
- RRIRDRPPRLPRPRPRPAETPRP — within 0.2 log units, 0.0806
- RRIRSRPPRLPRPRPRPYCLPRP — lower, -0.434
- RRIRGRPPRLPRPRPRPQMTPRP — higher, 2.33
- RRIRTRPPRLPRPRPRPMIFPRP — lower, -0.738
- RRIRTRPPRLPRPRPRPQNVPRP — within 0.2 log units, 0.0194
- RRIRARPPRLPRPRPRPLCSPRP — within 0.2 log units, 0.197
- RRIRRRPPRLPRPRPRPWSNPRP — lower, -0.226
- RRIRPRPPRLPRPRPRPDWDPRP — within 0.2 log units, 0.00947
- RRIRMRPPRLPRPRPRPQVCPRP — within 0.2 log units, 0.0261
- RRIRCRPPRLPRPRPRPPMSPRP — lower, -0.178
- RRIRMRPPRLPRPRPRPVAIPRP — within 0.2 log units, 0.104
- RRIRLRPPRLPRPRPRPRYCPRP — lower, -0.357
- RRIRRRPPRLPRPRPRPFICPRP — within 0.2 log units, -0.0336
- RRIRTRPPRLPRPRPRPTCRPRP — within 0.2 log units, -0.0601
- RRIRKRPPRLPRPRPRPCDPPRP — within 0.2 log units, 0.121
- RRIRDRPPRLPRPRPRPPMHPRP — higher, 0.319
- RRIRMRPPRLPRPRPRPRYMPRP — lower, -0.212
- RRIRHRPPRLPRPRPRPMIHPRP — lower, -0.382
- RRIRSRPPRLPRPRPRPQCTPRP — within 0.2 log units, 0.294
- RRIRYRPPRLPRPRPRPLGFPRP — lower, -0.662
- RRIRGRPPRLPRPRPRPHITPRP — within 0.2 log units, -0.0465
- RRIRHRPPRLPRPRPRPGRRPRP — higher, 0.525
- RRIRDRPPRLPRPRPRPQIGPRP — within 0.2 log units, -0.00672
- RRIRQRPPRLPRPRPRPGTPPRP — within 0.2 log units, 0.000485
- RRIRNRPPRLPRPRPRPEWNPRP — within 0.2 log units, 0.0541
- RRIRGRPPRLPRPRPRPCPVPRP — within 0.2 log units, 0.197
- RRIRQRPPRLPRPRPRPLGAPRP — within 0.2 log units, 0.285
- RRIRQRPPRLPRPRPRPMIPPRP — within 0.2 log units, -0.0361
- RRIRRRPPRLPRPRPRPGHDPRP — within 0.2 log units, 0.0801
- RRIRQRPPRLPRPRPRPPKDPRP — within 0.2 log units, 0.0238
- RRIRVRPPRLPRPRPRPQHIPRP — lower, -0.32
- RRIRWRPPRLPRPRPRPGRHPRP — higher, 0.458
- RRIRPRPPRLPRPRPRPGMDPRP — within 0.2 log units, -0.00631
- RRIRYRPPRLPRPRPRPGWIPRP — lower, -0.328
- RRIRYRPPRLPRPRPRPVLVPRP — lower, -0.507
- RRIRARPPRLPRPRPRPRYMPRP — lower, -0.365
